Data set [1] concerns HeLa Kyoto. Description: thermal stability score vs G1/S (z-score of summed log2 fold changes over temperatures); higher = more thermally stable than in G1/S.
Data set [2] deals with HeLa Kyoto. The data set is described as follows: solubility change mitosis vs G1/S (difference of NP-40 vs SDS log2 ratios) (log2 ratio difference); higher = more soluble in mitosis.
Data set [3] deals with HeLa Kyoto. The data set is described as follows: melting temperature (median over replicates), in situ; higher = more thermally stable.
The subject of data set [4] is HeLa Kyoto. The data set is described as follows: solubility in G1/S (NP-40 vs SDS abundance) (log2 ratio); higher = more soluble. Conditions: cell cycle stage: G1/S.
[5] abbreviates: cell cycle stage: early G1 (4.5 h after nocodazole release).
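For melting temperature (median over replicates), in situ in this document: HeLa Kyoto cells synchronized by double thymidine or nocodazole block, proteins quantified by TMT10plex mass spectrometry, three independent biological replicates.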
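For solubility change mitosis vs G1/S (difference of NP-40 vs SDS log2 ratios) in this document: synchronized HeLa Kyoto cells (double thymidine block for G1/S, nocodazole release for mitosis), protein amounts in NP-40 versus SDS lysates quantified by mass spectrometry, three biological replicates.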
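For solubility in G1/S (NP-40 vs SDS abundance) in this document: HeLa Kyoto cells arrested at G1/S by double thymidine block, proteins quantified by TMT10plex mass spectrometry in mild NP-40 versus SDS extracts, three biological replicates.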
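For thermal stability score vs G1/S (z-score of summed log2 fold changes over temperatures) in this document: synchronized HeLa Kyoto cells, proteins quantified by TMT10plex mass spectrometry, three biological replicates, mitosis taken 0.5 h after nocodazole release, G1/S directly after double thymidine block.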

“MLRACQLSGVTAAAQSCLCGKFVLRPLRPCRRYSTSGSSGLTTGKIAGAGLLFVGGGIGGTILYAKWDSHFRESVEKTIPYSDKLFEMVLGPAAYNVPLPKKSIQSGPLKISSVSEVMKESKQPASQLQKQKGDTPASATAPTEAAQIISAAGDTLSVPAPAVQPEESLKTDHPEIGEGKPTPALSEEASSSSIRERPPEEVAARLAQQEKQEQVKIESLAKSLEDALRQTASVTLQAIAAQNAAVQAVNAHSNILKAAMDNSEIAGEKKSAQWRTVEGALKERRKAVDEAADALLKAKEELEKMKSVIENAKKKEVAGAKPHITAAEGKLHNMIVDLDNVVKKVQAAQSEAKVVSQYHELVVQARDDFKRELDSITPEVLPGWKGMSVSDLADKLSTDDLNSLIAHAHRRIDQLNRELAEQKATEKQHITLALEKQKLEEKRAFDSAVAKALEHHRSEIQAEQDRKIEEVRDAMENEMRTQLRRQAAAHTDHLRDVLRVQEQELKSEFEQNLSEKLSEQELQFRRLSQEQVDNFTLDINTAYARLRGIEQAVQSHAVAEEEARKAHQLWLSVEALKYSMKTSSAETPTIPLGSAVEAIKANCSDNEFTQALTAAIPPESLTRGVYSEETLRARFYAVQKLARRVAMIDETRNSLYQYFLSYLQSLLLFPPQQLKPPPELCPEDINTFKLLSYASYCIEHGDLELAAKFVNQLKGESRRVAQDWLKEARMTLETKQIVEILTAYASAVGIGTTQVQPE [IMMT]”: the figures for the thermal stability score in data set [1] (setting [5]) and in data set [1] (cell cycle stage: mitosis) were 0.171 and -1.21, respectively. The “solubility change mitosis (log2)” value in data set [2] is 0.0268. In addition, the melting temperature in data set [3] (cell cycle stage: G1/S) is 53.2 °C; in data set [3] (cell cycle stage: mitosis), 52 °C. For the same sequence, the “solubility in G1/S (log2)” value in data set [4] amounted to 0.38.

In the case of “MLRAKNQLFLLSPHYLRQVKESSGSRLIQQRLLHQQQPLHPEWAALAKKQLKGKNPEDLIWHTPEGISIKPLYSKRDTMDLPEELPGVKPFTRGPYPTMYTFRPWTIRQYAGFSTVEESNKFYKDNIKAGQQGLSVAFDLATHRGYDSDNPRVRGDVGMAGVAIDTVEDTKILFDGIPLEKMSVSMTMNGAVIPVLANFIVTGEEQGVPKEKLTGTIQNDILKEFMVRNTYIFPPEPSMKIIADIFEYTAKHMPKFNSISISGYHMQEAGADAILELAYTLADGLEYSRTGLQAGLTIDEFAPRLSFFWGIGMNFYMEIAKMRAGRRLWAHLIEKMFQPKNSKSLLLRAHCQTSGWSLTEQDPYNNIVRTAIEAMAAVFGGTQSLHTNSFDEALGLPTVKSARIARNTQIIIQEESGIPKVADPWGGSYMMECLTNDVYDAALKLINEIEEMGGMAKAVAEGIPKLRIEECAARRQARIDSGSEVIVGVNKYQLEKEDAVEVLAIDNTSVRNRQIEKLKKIKSSRDQALAERCLAALTECAASGDGNILALAVDASRARCTVGEITDALKKVFGEHKANDRMVSGAYRQEFGESKEITSAIKRVHKFMEREGRRPRLLVAKMGQDGHDRGAKVIATGFADLGFDVDIGPLFQTPREVAQQAVDADVHAVGISTLAAGHKTLVPELIKELNSLGRPDILVMCGGVIPPQDYEFLFEVGVSNVFGPGTRIPKAAVQVLDDIEKCLEKKQQSV [MUT]”, the thermal stability score in data set [1] (setting [5]) was -0.0875; in data set [1] (cell cycle stage: mitosis), 0.531. For the same sequence, the “solubility change mitosis (log2)” value in data set [2] is -0.0993. Moreover, the figures for the melting temperature in data set [3] (cell cycle stage: G1/S) and in data set [3] (cell cycle stage: mitosis) were 50.6 °C and 50.3 °C, respectively. The “solubility in G1/S (log2)” value in data set [4] came out at 0.0667.

Consider “MLRCLYHWHRPVLNRRWSRLCLPKQYLFTMKLQSPEFQSLFTEGLKSLTELFVKENHELRIAGGAVRDLLNGVKPQDIDFATTATPTQMKEMFQSAGIRMINNRGEKHGTITARLHEENFEITTLRIDVTTDGRHAEVEFTTDWQKDAERRDLTINSMFLGFDGTLFDYFNGYEDLKNKKVRFVGHAKQRIQEDYLRILRYFRFYGRIVDKPGDHDPETLEAIAENAKGLAGISGERIWVELKKILVGNHVNHLIHLIYDLDVAPYIGLPANASLEEFDKVSKNVDGFSPKPVTLLASLFKVQDDVTKLDLRLKIAKEEKNLGLFIVKNRKDLIKATDSSDPLKPYQDFIIDSREPDATTRVCELLKYQGEHCLLKEMQQWSIPPFPVSGHDIRKVGISSGKEIGALLQQLREQWKKSGYQMEKDELLSYIKKT [TRNT1]”, for which the thermal stability score in data set [1] (setting [5]) was found to be 1.75; in data set [1] (cell cycle stage: mitosis), 1.59. In data set [2], the “solubility change mitosis (log2)” value was -0.109. Also, the melting temperature in data set [3] (cell cycle stage: G1/S) worked out at 50.9 °C; in data set [3] (cell cycle stage: mitosis), 50.2 °C. Also, the “solubility in G1/S (log2)” value in data set [4] came to 0.146.

“MLRWLRDFVLPTAACQDAEQPTRYETLFQALDRNGDGVVDIGELQEGLRNLGIPLGQDAEEKIFTTGDVNKDGKLDFEEFMKYLKDHEKKMKLAFKSLDKNNDGKIEASEIVQSLQTLGLTISEQQAELILQSIDVDGTMTVDWNEWRDYFLFNPVTDIEEIIRFWKHSTGIDIGDSLTIPDEFTEDEKKSGQWWRQLLAGGIAGAVSRTSTAPLDRLKIMMQVHGSKSDKMNIFGGFRQMVKEGGIRSLWRGNGTNVIKIAPETAVKFWAYEQYKKLLTEEGQKIGTFERFISGSMAGATAQTFIYPMEVMKTRLAVGKTGQYSGIYDCAKKILKHEGLGAFYKGYVPNLLGIIPYAGIDLAVYELLKSYWLDNFAKDSVNPGVMVLLGCGALSSTCGQLASYPLALVRTRMQAQAMLEGSPQLNMVGLFRRIISKEGIPGLYRGITPNFMKVLPAVGISYVVYENMKQTLGVTQK [SLC25A24]”: the results for the thermal stability score in data set [1] (setting [5]) and in data set [1] (cell cycle stage: mitosis) were -1.13 and -0.922, respectively. Besides, the “solubility change mitosis (log2)” value in data set [2] was -0.0619. Moreover, the melting temperature in data set [3] (cell cycle stage: G1/S) is 56.8 °C; in data set [3] (cell cycle stage: mitosis), 57.8 °C. Further, in data set [4], the “solubility in G1/S (log2)” value came out at 0.296.

For the sequence “MLSAASRVVSRAAVHCALRSPPPEARALAMSRPPPPRVASVLGTMEMGRRMDAPASAAAVRAFLERGHTELDTAFMYSDGQSETILGGLGLGLGGGDCRVKIATKANPWDGKSLKPDSVRSQLETSLKRLQCPQVDLFYLHAPDHGTPVEETLHACQRLHQEGKFVELGLSNYASWEVAEICTLCKSNGWILPTVYQGMYNATTRQVETELFPCLRHFGLRFYAYNPLAGGLLTGKYKYEDKDGKQPVGRFFGNSWAETYRNRFWKEHHFEAIALVEKALQAAYGASAPSVTSAALRWMYHHSQLQGAHGDAVILGMSSLEQLEQNLAATEEGPLEPAVVDAFNQAWHLVAHECPNYFR [AKR7A2]”, the thermal stability score worked out at 0.491 in data set [1] (setting [5]) and 0.31 in data set [1] (cell cycle stage: mitosis). Also, the “solubility change mitosis (log2)” value in data set [2] is -0.121. In addition, the melting temperature in data set [3] (cell cycle stage: G1/S) and in data set [3] (cell cycle stage: mitosis) was 53.1 °C each time. In addition, the “solubility in G1/S (log2)” value in data set [4] stood at 0.438.

The values are drawn from the supplement of paper PMC5998384.
